Measurements reported in paper doi:10.1101/2021.06.22.449413, “A Thioredoxin reductive mechanism balances the oxidative protein import pathway in the intermembrane space of mitochondria” (bioRxiv, 2021).
Positions count from the first letter of the chain named.

B1: Trx1 C30/33S double mutant, His-tagged (natural protein, S. cerevisiae, UniProt P22217 1-103, looked up)
chain: MVTQFKTASEFDSAIAQDKLVVVDFYATWSGPSKMIAPMIEKFSEQYPQADFYKLDVDELGDVAQKNEVSAMPTLLLFKNGKEVAKVVGANPAAIKQAIAANA
notes: Thioredoxin 1 (Trx1), S. cerevisiae, both active-site cysteines changed to serine; also called Trx1His C30/33S; TrxC30/33SHis; source: purified as 6His-tagged protein
B2: Thioredoxin 1 (Trx1), His-tagged, wild type (natural protein, S. cerevisiae, UniProt P22217 1-103, looked up)
chain: B1 chain with S30C, S33C
notes: Thioredoxin 1 (Trx1), S. cerevisiae, cytosolic isoform; cloned in PET24 vector; also called Trx1His wt; TrxHis; source: E. coli, purified (Ni-NTA); for the pull-down imported into isolated wt yeast mitochondria
B3: Mia40Δ290 His (S. cerevisiae Mia40 devoid of the N-terminal 290 residues) (domain or fragment, UniProt P36046 291-403, looked up)
chain: EINWDCPCLGGMAHGPCGEEFKSAFSCFVYSEAEPKGIDCVEKFQHMQDCFRKYPEHYAEQLKETSDDEEPQDKVKVNTIESAPNVSSAKENAAKKAEQSDVKKEPLNEESKP
notes: Mia40, S. cerevisiae, lacking the first 290 amino acids; core domain of about 15 kDa; also called core domain of Mia40; soluble functional domain of Mia40; source: purified as 6His-tagged protein
B4: Thioredoxin 2 (Trx2), His-tagged (natural protein, S. cerevisiae, UniProt P22803 1-104, looked up)
chain: MVTQLKSASEYDSALASGDKLVVVDFFATWCGPCKMIAPMIEKFAEQYSDAAFYKLDVDEVSDVAQKAEVSSMPTLIFYKGGKEVTRVVGANPAAIKQAIASNV
notes: Thioredoxin 2 (Trx2), S. cerevisiae, cytosolic isoform; source: purified as 6His-tagged protein

What was measured:
[1] = biological target: the molecule itself; experiment: cross-linking; glutaraldehyde 0.1 % final, equimolar purified proteins alone or together, 50 mM Hepes-KOH pH 7.4, on ice, 20 seconds to 10 minutes; SDS-PAGE and anti-His immunoblot
[2] = biological target: B3; experiment: ITC; 1 mM Mia40Δ290 His in the syringe, 0.1 mM TrxC30/33SHis in the cell; Kd calculated with the Origin software; conditions: both partners purified
[3] = biological target: B3; experiment: cross-linking; glutaraldehyde 0.1 % final, equimolar purified proteins alone or together, 50 mM Hepes-KOH pH 7.4, on ice, 20 seconds to 10 minutes; SDS-PAGE and anti-His immunoblot; conditions: both partners purified

Binder	binding result [1]	Kd [2] [µM]	binding result [3]
B1	binds	30	
B2	binds		binds
B3	binds		
B4	binds		binds
